Where two headings read alike, the source gives them in different places. Blank lines part the entries; values can stand above or below the binder they belong to.
Columns and labels:
[1] = target: T1, human CD33-His (extracellular domain Asp 18-His 259) (human, UniProt P20138 18-259); test: competitive ELISA vs coated SGN-33 3ug/mL; soluble 25ug/ml
T1 construct: range 18-259; bought protein; also called hCD33-his; human CD33 protein; not shown: His tag

[2] = target: T2, human CD33-C2-his (human, UniProt P20138 136-260); test: ELISA on coated human CD33-C2-his
T2 construct: expressed in HEK293E; also called hCD33-C2-his; human CD33 protein C2-domain; not shown: His tag
Source text: (§1) Plates were coated with human CD33-V-his (membrane distal end) and human CD33-C2-his (membrane proximal end), respectively, according to the ELISA method in Example 8. The VHH humanized antibodies were classified based on the membrane distal end and the membrane proximal end, as shown in FIGS. 20A-20J and Table 44, which allowed the classification of the VHH humanized antibodies into the following classes: […]

[3] = target: T1, human CD33-His (extracellular domain …); test: competitive ELISA vs coated S006-NB146-40 2ug/mL; soluble 25ug/ml
Experimental: (§2) VHH antibodies and control antibodies with known epitopes were subjected to epitope classification with competitive ELISA. ELISA plates were coated with 2 μg/mL antibodies according to the method in Example 5.1; the human CD33-his protein was subjected to a gradient dilution from 30 μg/mL, and EC80 values (Tables 26-27) were calculated. ELISA plates were coated with 2 μg/mL antibodies; after 25 µg/mL of antibodies to be tested were added, a human CD33-his protein having an EC80 concentration corresponding to each of the antibodies to be tested was then added for incubation for 2 h. The plates were washed 5 times with PBS, then HRP-labeled anti-His antibodies (purchased from GenScript, Cat. No. A00612) were added for incubation for 1 h, and the plates were washed 5 times. A TMB substrate was added at 50 μL/well and incubated at room temperature for 10 min, then a stop solution (1.0 M HCl) was added at 50 μL/well. OD_{450 nm} values were read using an ELISA plate reader (Insight, purchased from PerkinElmer), and the competition rate between the antibodies was calculated according to the OD_{450 nm} values using a formula. The results are shown in FIGS. 12A-12B, the higher the value of the competition rate, the closer the epitopes to which two antibodies bind.

[4] = target: T3, monkey CD33-His protein (monkey); test: ELISA on coated monkey CD33-his
T3 construct: also called monkey CD33 protein

[5] = target: T1, human CD33-His (extracellular domain …); test: competitive ELISA vs coated S006-NB146-173 3ug/mL; soluble 25ug/ml
[6] = target: T2, human CD33-C2-his; test: ELISA on coated human CD33-C2-his; remark: listed apart in the source
Source text: as §1

[7] = target: T1, human CD33-His (extracellular domain …); test: competitive ELISA vs coated S006-NB146-39 2ug/mL; soluble 25ug/ml
Experimental: as §2

[8] = target: T4, human CD33-his protein (human, UniProt P20138 18-259); test: competition ELISA, coated human CD33-his, vs Biotin-C33B904 at EC80; antibody 15.63 nM
T4 construct: range 18-259; bought protein; also called hCD33-his; recombinant human CD33-his; not shown: His tag
Experimental: (§3) The plate was sealed with a plastic film and incubated at 4° C. overnight, washed twice with PBS the next day, and a blocking solution [PBS+2% (w/w) BSA] was added for blocking at room temperature for 2 h. The blocking solution was discarded, and VHH-Fc antibody or negative control antibody serially diluted from 100 nM was added at 50 μL/well. After incubation at 37° C. for 2 h, the plate was washed 3 times with PBS. A secondary antibody labeled with HRP (horseradish peroxidase) (purchased from Sigma, Cat. No. A0170) was added. After incubation for 1 h at 37° C., the plate was washed 5 times with PBS. A TMB substrate was added at 50 μL/well. After incubation at room temperature for 10 min, a stop solution (1.0 N HCl) was added at 50 μL/well. The OD450 nm values were read on an ELISA plate reader (Multimode Plate Reader, EnSight, purchased from Perkin Elmer). The assay results for the binding of the VHH-Fc to hCD33-his by ELISA are shown in FIGS. 7A and 7B and Tables 11 and 12. […] The IgG control was hIgG1, and the data in the table are OD450 nm values.
(§4) ELISA plates were coated with 2 μg/mL human CD33-his protein according to the method in Example 5.1; the Biotin-C331B904 antibody was subjected to a gradient dilution from 15 μg/mL, and EC80 values (0.18 μg/mL) were calculated. […] OD_{450 nm} values were read using an ELISA plate reader (Insight, purchased from PerkinElmer). […]

[9] = target: T4, human CD33-his protein; test: competition ELISA, coated human CD33-his, vs Biotin-C33B904 at EC80; antibody 0.49 nM
Experimental: as §3, §4

[10] = target: T4, human CD33-his protein; test: competition ELISA, coated human CD33-his, vs Biotin-C33B904 at EC80; antibody 0.98 nM
Experimental: ELISA plates were coated with 2 μg/mL human CD33-his protein according to the method in Example 5.1; the Biotin-C331B904 antibody was subjected to a gradient dilution from 15 μg/mL, and EC80 values (0.18 μg/mL) were calculated. ELISA plates were coated with 2 μg/mL human CD33-his protein; starting from 40 μg/mL, the VHH antibodies to be tested were diluted in a 1:2 dilution ratio to obtain seven concentrations and added to the ELISA plates, and then Biotin-C331904 antibodies with the EC80 concentrations were added for incubation for 2 h. The plates were washed 5 times with PBS and then […] (purchased from Sigma, Cat. No. S2438) were added for incubation for 1 h, and the plates were washed 5 times. A TMB substrate was added at 50 μL/well and incubated at room temperature for 10 min, then a stop solution (1.0 M HCl) was added at 50 μL/well. OD_{450 nm} values were read using an ELISA plate reader (Insight, purchased from PerkinElmer). Then, analysis was performed by software (GraphPad Prism8), and data were fitted for curve plotting. The results are shown in FIGS. 13A-13B and Tables 28 and 29.

[11] = target: T4, human CD33-his protein; test: competition ELISA, coated human CD33-his, vs Biotin-C33B904 at EC80; antibody 125.00 nM
Experimental: as §3, §4

T4 sequence (P20138 18-259 limits assumed): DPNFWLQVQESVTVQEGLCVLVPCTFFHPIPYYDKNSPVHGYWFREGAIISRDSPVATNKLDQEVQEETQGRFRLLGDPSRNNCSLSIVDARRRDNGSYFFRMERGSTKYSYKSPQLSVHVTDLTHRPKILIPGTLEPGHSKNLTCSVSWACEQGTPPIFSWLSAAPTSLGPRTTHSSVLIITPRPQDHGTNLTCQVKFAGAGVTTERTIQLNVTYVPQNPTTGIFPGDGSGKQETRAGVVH
T1 sequence (P20138 18-259 limits assumed): as above
T2 sequence (P20138 other isoform, or with tags, fused parts or gaps limits assumed): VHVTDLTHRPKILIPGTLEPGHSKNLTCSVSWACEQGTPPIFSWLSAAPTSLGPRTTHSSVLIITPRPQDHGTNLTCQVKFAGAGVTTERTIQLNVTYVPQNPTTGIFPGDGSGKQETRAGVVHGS

inhibition rate [1]: 14% | EC50 (read off the curve) [2]: ~0.1 nM | inhibition rate [3]: -5% | EC50 (read off the curve) [4]: ~0.1 nM | inhibition rate [5]: 100% | EC50 (read off the curve) [6]: ~0.2 nM | inhibition rate [7]: 85%
B1: C33B904 hIgG1 (antibody, V domains shown)
VH: EVQLVESGGGLVQPGRSLRLSCAASGFTFDDYAMHWVRQAPGKGLEWVSGIGWSGGSIVYADSVKGRFTISRDNAKNSLYLQMNSLRAEDTALYYCAKDSPYGDFFDYWGQGTLVTVSS
VL: DIVMTQSPDSLAVSLGERATINCKSSQTVFYSSNNKNYLAWYQQKPGQPPKLLISWASTRKSGVPDRFSGSGSGTDFTLTVSSLQAEDVAVYYCQHYYSTPYTFGQGTKLEIKR
notes: intact human IgG1; variable regions from US20190382481A1; also called C33B3904; C331B904

OD450 (Biotin-C33B904 signal) [8]: 1.03 | OD450 (Biotin-C33B904 signal) [9]: 2.44 | OD450 (Biotin-C33B904 signal) [10]: 2.22 | OD450 (Biotin-C33B904 signal) [11]: 0.16
B2: C33B904 (antibody, human IgG1, kappa, V domains shown)
VH: B1 VH
VL: B1 VL
notes: control antibody, intact human IgG1 form; variable regions from US20190382481A1; also called C33B904 hIgG1; C331B904

Source: patent US20240124575A1 (SIMCERE ZAIMING PHARMACEUTICAL, published 2024)
